Results taken from patent publication JP2008136455A (dated 2008).

Key:
[1] = target: T1, hnRNP-K (heterogeneous nuclear ribonucleoprotein K) (human (endogenous protein of the human …, UniProt P61978 1-463, limits assumed)); assay: streptavidin affinity precipitation from HT1080 lysate, stringent wash, western blot with anti-hnRNP-K antibody
T1 construct: Endogenous intracellular protein

ビメンチン(vimentin) = target: T2, ビメンチン(vimentin) (human (endogenous protein of the human …, UniProt P08670 2-466)); assay: streptavidin affinity precipitation from HT1080 lysate, stringent wash, western blot with anti-vimentin antibody
T2 construct: Endogenous intracellular protein
T2 sequence (P08670 2-466 limits assumed): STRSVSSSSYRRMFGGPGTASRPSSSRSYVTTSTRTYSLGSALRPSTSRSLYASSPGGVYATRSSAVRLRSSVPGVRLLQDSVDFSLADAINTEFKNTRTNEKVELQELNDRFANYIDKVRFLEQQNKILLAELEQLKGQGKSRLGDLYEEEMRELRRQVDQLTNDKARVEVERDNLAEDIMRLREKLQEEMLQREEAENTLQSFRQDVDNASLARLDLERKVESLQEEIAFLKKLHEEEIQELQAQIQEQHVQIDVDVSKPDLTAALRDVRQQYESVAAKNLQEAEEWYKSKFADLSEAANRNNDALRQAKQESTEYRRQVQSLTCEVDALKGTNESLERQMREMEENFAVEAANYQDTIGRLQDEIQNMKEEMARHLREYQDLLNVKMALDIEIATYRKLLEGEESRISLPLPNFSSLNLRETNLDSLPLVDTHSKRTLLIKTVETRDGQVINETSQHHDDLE

- binding result [1]: no binding
- binding result (ビメンチン(vimentin)): no binding
B1: VHH-Sfi-SBT (VHH, not shown: large carriers)
VHH: DVQLQASGGGSVQAGGSLRLSCAASGYTIGPYCMGWFRQAPGKEREGVAAINMGGGITYYADSVKGRFTISQDNAKNTVYLLMNSLEPEDTAIYYCAADSAIYASYYECGHGLSTGGYGYGPWGQGTQVTVSS
